Assay results as given in the DeepSol protein solubility set.

Assay: soluble on expression in E. coli; label from the status in PepcDB or PDB records

In the case of “MGSDKIHHHHHHMAKQKDGFLGEQALVLPPAIVQRMKTDPATSILYITDIGYYPKAYNHFRERETPIDQYVFIYCTEGRGWFSLDGQKHPVVPNQYFILPAGLPHAYGADEKEPWTIYWIHFGGTLAPLYCTHRTCRLTDIKPGMHSRISYRTELFEEIFRVLKMGYSLENLSYASSVFHHYLGSLRYLREYREAFSEHRPAGEEDPVNAAIHYMKENLGKKLTLAELADYTGYSSSYFSNLFLKRTGYAPLSYFNQIKIQKACQFLDFTDMKVNQVCYRVGIEDAYYFSRLFSQIMGMSPREYKKVKKG”, the “soluble on expression in E. coli” value was “not soluble”.

For “MSSKEQKTPEGQAPEEIIMDQHEEIEAVEPEASAEQVDPRDEKVANLEAQLAEAQTRERDGILRVKAEMENLRRRTELDIEKAHKFALEKFINELLPVIDSLDRALEVADKANPDMSAMVEDIELTLKSMLDVVRKFGVEVIAETNVPLDPNVHQAIAMVESDDVAPGNVLGIMQKGYTLNGRTIRAAMVTVAKAKA”, the “soluble on expression in E. coli” value was “soluble”.

In the case of “MNRARDWLEQARHNLRHAQGSLGLGDYAWACFAAQQAAEAALKGLHLARGQVAWGHSILDLLADLPEDVDVPEDLVEAAKVLDKYYIPTRYPDAHPAGPAARHYTRLEAEEALDLAQKILAFVEEKL”, the “soluble on expression in E. coli” value was “soluble”.

For “QTLARVDLAYDDYDGIFDCEYAYKAWRDDCFRTAERGRGPVLHEDMTIASIGKDGKPIYTKEQYSIGSRTSRIYWRIYNKALEQKLANTGLVWYRSEVELKKWNVDVLLNPAGAYAALNDFAASISTAKKFNTKPVPTKRAALDLLASAHWMRRQYGKILNSLIEFHEGDIETVVGSLVRDGTKFTFPDTYG”, the “soluble on expression in E. coli” value was “not soluble”.

In the case of “AHHHHHHGSHKLKVSVSFSYGKKEIVKNVEFEGKVGEIIAIIGPNGAGKSTLLKCIAGILKPRGIIEYNGIDLTKLKPKERAKIVGYVPQSSYPEFAFTVEEFVELGTYAGKGDVDEAIRRVGLWEKRKEFITNLSGGEYQLTLIARALAQGGDIMLLDEPTSHLDINHTREIMEILQELKKEKLIIAVFHDLNLAINYADEIIVLKNGETAWKGKSKEISEEVIEATYGIKPRIVREDGIVAVLP”, the “soluble on expression in E. coli” value was “soluble”.

For “VAAALGVKPPETATTPEIVVGRPPELCKGCGHRDMFDAINIAIKENADHHVFSDIGCYTLGALPPYNAIHTCVDMGAAITMAKGAADAGLRPAVCVIGDSTFAHSGMTGLLDAVNDRTPVTVIIADNNTTAMTGGQCSSASGSKLVNICIGLGVEEAHIRTIVPLRQHLHENVSVLRDEFAYNGVSVVIAQRECIETAAKKKRRAAASAQ”, the “soluble on expression in E. coli” value was “not soluble”.

With “MGSDKIHHHHHHAATRLKRRKFPTINEEFYYNQLENGMTVFLIPKESFKETLAVMSSRFGSIDTNFTVNGKKKSYLAGIAHLLEHQLFEMNKQKDAAYEFTKLGAESNAYTTFDKTIYYFSTADNIKKNLDLLQEFTSQINFTDMSIEKEKKIITQEFNMYQDDSDDYLYQVILSKLYPQTSLAEDITGNRDSIDKLTKNNLEENFHYFYQPENLTLLVAGDFDVKRVYKDIVTTQRQLPDRPKFEIKRSPLKLLPITPTSSMQMDISISKLAVGFRFNFIKKKRKSLIKERLLLKLFFLLLFGWTSEHYQQWYEDRKIDDSFELKIEVSTSYQFVVILLDTKEPIAMSNKIGQTIKKFKTDTNLSASHLQTVKKELYGDFIRSLDSLEALSSQFIDNLWGEETYFDFPTVLQNIEIKDVLEFGEKITKEMQLTDFTLFPK” the “soluble on expression in E. coli” value was “not soluble”.

With “MSLAQIVTSTKSCTVNPLRMSQPLGAALAFMGLRNCMPLLHGSQGCTSFGLVLFVRHFRESIPLQTTAMSEVATVLGGFENVEQAIVNIVGRTKPDVIGICTTGVTEIKGDDLDGYIKMVRANHPELANVALVPVSTPDFKGAFEDGFAATVTRIVETLVETPAEGAAPDADRINVLAGSHLTPGDIDELRDIIEAFGLVPTFLPDISGSLDGHVPDDFTPTTHGGVSVAEVVAMGGAGHTLAFGEHMRKAAAALEAKAGVPFTLLSRVTGLAAADELMATLAKISGRPVPPKYRRQRSQLVDAMLDGHFYFGGKSVAIGAEPDMLLNIGGWLADMGCTVSAAVTTTTSPSLAQVPSDEVLIGDLEDLERRAEDCDLLVTHSHGRQAAERLSVPLFRMGLPMFDRLGAVHQVAVGYRGTRDLIFAIGNLFIANIKEPDVNSWRSASACPDQTDAEGHHHHHH” the “soluble on expression in E. coli” value was “soluble”.

With “MAHHHHHHMAPQSPSEWDNARRAAKRALTISDEYPPATVERIQKLLQRAETTSNDAVLLSELKSLVQSYFQSPQSLQFLRKERVASKGGGIGVVAARKIPAFSIIGVYPGYLDFMSGEQAKCGRPVPKYALMEYNCANYFNEVFVELQTTFTPFINEPNVDEKSNCAWIQEPHRKNGRLSVICVRDIQEGEELTIGYGPIYPRTYPYCYDAYACHQIEGHTTHPCYSLWHWPTLQEADARFVCHIGYIERDDCYVLWKNET” the “soluble on expression in E. coli” value was “not soluble”.

For “MKIVAITSCPNGIAHTYMAQEKLEQVAKEMGVDIKVETQGGVGAENVLTTQDIEEADGVIIAADKQVDLSRFVGKRLINENVREGIHNPRGLIQRIINQDAPIYQSETN”, the “soluble on expression in E. coli” value was “not soluble”.

For “GPGSMERIPLVVRRMVAAEQSCGFVHFFASLADASATPLVIEAKAFSSAAAGGAADDAAPTYQLVYDVMRSRNGHILFKKSYAERFTHSLALAAPVHALPAQLRSLVQSRLQAYIESPGVYLDGATERNVKLLSWIPATAASTTQEEAFPIPGIVMLVKSSYPSESMYREGAKLGLLFNAHRTNPNAKVAQMGLRDRANAYLAENDVYEVLLVHDAADAYLVPEGSRSNYLLQKSDGTWWCSAEEDILVGITLKTTYRVVQACGLGSVQHAKLTLKDILESKSLFILGTSPTIMPVQSVLLYRDTETRRLYEEAVRGLGTTAGTVQQVSDDKAELLFPVNVELAAALRAQYFAEAASS”, the “soluble on expression in E. coli” value was “not soluble”.

For “MIAVIFEVWPAEGEKQHYLDIAAGLRAELETIDGFLSIERFQSISNPEKMLSLSFFRDEQAVRAWRNTLPHRTAQALGRSGVFSDYRLRIAHVIRDYGLLEREEAPADSRDAHPVEGSSLG”, the “soluble on expression in E. coli” value was “not soluble”.

With “MEHNILQVIALAEKLKYEMRHSWLSNGRQESVAEHTWRMSLMAILVEPYLDQKVSIEKLLKMVIIHDLVEAEAGDIPAFDTMNSHDLQLQKQKNELEAILNIKQTLTGSLGEELYDLWMEFEAKETYEAKVANALDKLEVKIQHNEADIDTWLPIEHKMTFQVAKHTNFDSFLSKLQKIIEQDGEKKLIAAGIDVEACKQ” the “soluble on expression in E. coli” value was “soluble”.

With “MLKGKKILLCVTGGIAVFKAAALTSKLTQAGAIVKVMMSESAVKFVTPLTFQALSRHDVYTDTFDEKDSAVIAHIDLADWADVVLVAPATANCIGKLANGIADDMITTTLLATTAPVWIAPAMNVHMYENKIVQKNMMTLKTLGYTFIEPGEGFLACGYVAKGRLEEPEAIIARLEEAFSEQKPLQGKRILITAGPTREKIDPVRFMTNFSSGKMGYAIAEVAVNLGAEVILVSGPTALNPPLHVTTVQVESAQDMLEAVIQHYQNVDVVIKTAAVADYRPKYVHDNKMKKKNGDAVIELERTVDILKTLGEMKDKQLLIGFAAETTNVEEYATKKLREKNANMIVANDVKAQGAGFGTDTNIVTMYRKDGEVIELPLLTKKEVAREILKQIEMMLEDDRL” the “soluble on expression in E. coli” value was “soluble”.

In the case of “MGSDKIHHHHHHMTDISWEMNDQTIVRKTDKIARQDTLPDLTLKKVKQGDRMRFDAHVNVDSMAEGQHLKRVTIFSNVPGGGTWELISDEGVAVGGRGTAPSPQMYFAAGLGLCLMSHVEMLAKSGEFEITSARLEQRSTWTTTMDLGAVAPANIYGKGEHMQMNLIIESPEPTPKIAEFIAYCRQACMALQTVAAATPVATGLYLNGAHIGDVGGTGPFAKVA”, the “soluble on expression in E. coli” value was “not soluble”.

With “MSLHLARVDRQWPRPLQPLGNTCSMMLIKQFPDISLNDTLFVFALEAEAGDVFTEVNTVFTGIGKVNAAIALTKAIATRRPKLIVNLGSAGSQRHGKGEIVCCNRFVQRDMDVTALGFARYETPLSDTPVVLEHGAAIPGLAVETCGSGDSFEINHGDAPYDVVDMEAYVLALIARGEGIPFVCLKYISDDAGSEAAGDWAVQVHLAAEAFKRVLFSQAEGHHHHHH” the “soluble on expression in E. coli” value was “soluble”.

With “MIILMSKPLSEKKTSNNISDLIYGLLKEDIFNFVLKPGQRFTETDLSERYEASRTPIRQALYRLEQEGFVHVHFRSGWEIRPLEFKYYQELFDLRMILEKEAVKRLCELEHPEQLPALIELKKMWLIAPVDYLTDTKTLVLQSEDFHCALVRAAGNQQIAKIHQEASEKIRIVLSLGAMKEFDIAHAYQDHGAILQCILNKDAEQAIHLAEHHVLESIHEVKNITLQMISAIH” the “soluble on expression in E. coli” value was “not soluble”.

For “MIIGSRRARSDKYVKIAHLMQCTQPWFNHFLPEPESPQASTYKMLKPVSWLPRPVKSVSFYPSRRTAVARNGHNLRLQWRGPLPELHWHSRSLQHTQH”, the “soluble on expression in E. coli” value was “not soluble”.

For “MGSDKIHHHHHHMASKNFVLDTNVLIENPRCIAALRNGEENRIHVPWTVLAELDGLQRDPRIGHVVGQAINALVGDEAVTFLPPLADDVAPSPGTIGDDRILGEIASSALESPILITNDRILQLKARVRGIPVEGYRDSVPFQSESQRYTGFVMDGEDPVPNCFRWENGQPVFHGPDGPRAVTWQHEVWKVAPRSVHQNLAFELMLHPGIDIVSIQSEAGYGKTFLALAAALHLVFERKDTPYRKIYLVKPVVEIGARMGFLPGDIEEKMHPYIRYVQDLLLKLHDLRPANRVFQSVEAGNMKLNPKRFEIQPIAYVRGMNLENAVVIIDEMQNLSRNEARALLTRMGEGVKCFCLGDTRQVDNQYLNESNNGLNWVVKKLKGFRNYAHIVLKGERSRGPITDIVLRSRL”, the “soluble on expression in E. coli” value was “not soluble”.

With “EKTEQEQILIPVANPDTIEDLINLALVIRDTKQKKELIALNVINDNNNSENKELQGKRNLEKAAMIAASADVSVNMVSRYDLNIASGIIHTIKEYDATDVVIGLHRKANIVDSFFGNLAESLLKGTHREVIIAKFLMPVN” the “soluble on expression in E. coli” value was “not soluble”.

With “MGSDKIHHHHHHMANEATQELFQVLDNTAIILQNELEISYLEAVYETGENLFQKEVLQKEELSSEKQLKLQESYESIELENFSNEEIRKGLQLALLKGMKHGIQVNHQMTPDSIGFIVAYLLEKVIQKKKNISILDPACGTANLLTTVINQLELKGDVDVHASGVDVDDLLISLALVGADLQRQKMTLLHQDGLANLLVDPVDVVISDLPVGYYPDDENAKTFELCREEGHSFAHFLFIEQGMRYTKPGGYLFFLVPDAMFGTSDFAKVDKFIKKNGHIEGIIKLPETLFKSEQARKSILILRKADVNVKPPKEVLLANLSSLTDPSVTAPILAEIENWFKSKQ” the “soluble on expression in E. coli” value was “not soluble”.

In the case of “MGSDKIHHHHHHMFYQLYEMNHAMMAPWRTAADAMRLAFSNPMNPVSHTYFGRAAAAGLEVFERATRRYGKPEFGLPETEIDGQPVPVRERIVWREPFCNLIHFERSLPRDRAPDPKVLIVAPMSGHYATLLRGTVEALLPHSDVYITDWIDARMVPLSEGTFDLDDYIDYVIQMLHFLGPDAHVIGVCQPAVPVLAAVALMEAAEDPLAPSTMTLMGGPIDTRINPTAVNELAKERPIEWFRDNVVMPVPWPQPGFMRMVYPGFLQLSGFMSMNLDRHLIAHKEFFAHLVKNDGDAAEKHRDFYDEYLAVMDLTAEFYLQTVQVVFMQHALPKGEMIHRGKRVDPTAIRRVALLTVEGENDDISGLGQTKAAQTICTGIPDSMRQHYMQPDVGHYGVFNGSRFRREIAPRIVAFQRRHSRHAKPVKQLIKGGKSA”, the “soluble on expression in E. coli” value was “not soluble”.

With “MIPMNVTFEHDFQTMRESFFENAQEAFAILDKDLNFIDINKSFTESLKTGRDKLIGKNIIEFNSSIKNTERFRLYQKVLQTGESIILDDIRLHPNLGSYTIRVSCFKVGEGIGLAILNITDLRDAIDDLETFIYKCSHDMRTPVSNIYGLIQLALEDTKDPHTVEFLNMIKHQTDRLDHIIHQLANTSRLMHDNKIIYLVDLKTVVSDVIDSFSKIPDFEAIKFTVTSSSKEKFFSDKSLLICILENIIDNAIKYRNHDIQSLIDINMSDEKSGVRITIKDNGIGIDDDIQKNVFKMFYRGTNKSSGSGLGLYTVKHFIKKLKGEISLTSEKNTGTTFSFYIPNVNTDK” the “soluble on expression in E. coli” value was “not soluble”.
